According to paper PMC2678197 (2009):
Where no end group is shown, it is not given here. [ ]: non-standard residue; d: D form. sY = N[C@@H](Cc1ccc(OS(=O)(=O)O)cc1)C(=O)O

Tests used:
Experiment in all cases: NMR
CCR3 peptide Su17 8-23 = target: T1, CCR3 peptide Su17 8-23 (Homo sapiens, UniProt P51677)
T1 chain: VETFGTTSY[sY]DDVGLL

CCR3 peptide Su16 8-23 = target: T2, CCR3 peptide Su16 8-23 (Homo sapiens, UniProt P51677)
T2 chain: VETFGTTS[sY]YDDVGLL

CCR3 peptide Su0 8-23 = target: T3, CCR3 peptide Su0 8-23 (Homo sapiens, UniProt P51677)
T3 chain: VETFGTTSYYDDVGLL

Kd (CCR3 peptide Su17 8-23): 22 µM
Kd (CCR3 peptide Su16 8-23): < 5 µM
Kd (CCR3 peptide Su0 8-23): 140 µM
B1: eotaxin (protein)
chain: not shown
